Read-outs that look alike come from different tables or passages of the source.
Key:
[1] = test system: splenocytes; test: Mitogen and alloantigen stimulation of splenocytes (3H-thymidine incorporation), whole or adherent/nonadherent cocultures; assay type: cell-based, mice; settings: for proliferative responses to Con A, IL-12 and allogeneic stimulation: data not shown
Procedure: The mitogen and alloantigen stimulation of splenocytes assay was performed as follows: In vitro mitogenic stimulation of splenocytes with […] Con A or 100 U/ml rmIL-12 was performed as described [Kurzawa, cited above]. Proliferative responses to allogeneic antigens (mixed lymphocyte reaction, MLR) was measured when splenocytes from the mice were stimulated with 10^5 mitomycin treated A/J splenocytes. Splenocyte fractionation was performed by allowing 10^5 splenocytes to adhere for 90 minutes in 96 well plates, after which the nonadherent cells were removed and cocultured with adherent cells from different wells for assay. When added, antibodies (XMG6 for IFNγ, XT22 for TNFα, AE5 for IL-10 and C17.8 for IL-12 ) were used at […] final concentration. After 72 hours exposure to mitogen, cultures were pulsed with 1 μCi^3H-thymidine for 16 hours, cells were harvested and ^3H incorporation was measured by scintillation counting. Supernatants from cultures assayed for IFNγ by radioimmunoassay (RIA) (using antibodies AN18 and XMG6 [Wysocka, M. et al. 1995 Eur. J. Immunol. 25:672] were harvested 24 or 72 hours after stimulation.
A. Splenocytes from rmIL-12- and PBS-treated C57BL/6 mice were fractioned by adherence to 96 well plastic plates for 90 minutes. The cells were reconstituted in various combinations of adherent and nonadherent cells by overlaying nonadherent cells on the adherent cells. These cocultures were then stimulated with either 2.5 μg/ml Con A, 100 U/ml IL-12, or 10^5 mitomycin C treated A/J (H-2A) splenocytes, as described in the mitogen/alloantigen assay of Example 1.
B. Cocultures were established from splenic adherent and nonadherent cells of PBS-treated mice or from the adherent cells of rmIL-12-treated mice and nonadherent cells of PBS-treated mice. Antibodies XMG6 (to IFNγ), XT22 (to TNFα), AE5 (to IL-10) and C17.8 (to IL-12 ) were added to a final concentration of […] in cocultures containing adherent cells from spleen of rmIL-12-treated mice, also according to the assay described in Example 1.
Cocultures were established from splenic adherent and nonadherent cells of PBS-treated mice or from the adherent cells of rmIL-12-treated mice and nonadherent cells of PBS-treated mice. Antibodies XMG6 (to IFNγ), XT22 (to TNFα), AE5 (to IL-10) and C17.8 (to IL-12) were added to a final concentration of […] in cocultures containing adherent cells from spleen of rmIL-12-treated mice. An inhibitor of inducible nitric oxide synthase (iNOS), L-NMMA (Sigma), was added to cocultures of adherent cells from rmIL-12 treated mice and nonadherent cells from control mice at a final concentration of […]. Alternatively, D-NMMA (Sigma), a noninhibitory isoform of L-NMMA, was added to other cocultures as a control.

[2] = Splenomegaly after a course of rmIL-12; assay type: in vivo; settings: iNOS−/− mice, like wild-type mice
[3] = test system: SCK cells; settings: A/J mice with established SCK immunity; given just prior to tumor cell rechallenge; cited from earlier work
[4] = test system: SCK cells; settings: cited from earlier work

B1: rmIL-12: recombinant murine Interleukin-12, heterodimeric cytokine, from Genetics Institute (protein, UniProt P43431 23-215; P43432 23-335, looked up)
Interleukin-12 subunit alpha: RVIPVSGPARCLSQSRNLLKTTDDMVKTAREKLKHYSCTAEDIDHEDITRDQTSTLKTCLPLELHKNESCLATRETSSTTRGSCLPPQKTSLMMTLCLGSIYEDLKMYQTEFQAINAALQNHNHQQIILDKGMLVAIDELMQSLNHNGETLRQKPPVGEADPYRVKMKLCILLHAFSTRVVTINRVMGYLSSA
Interleukin-12 subunit beta: MWELEKDVYVVEVDWTPDAPGETVNLTCDTPEEDDITWTSDQRHGVIGSGKTLTITVKEFLDAGQYTCHKGGETLSHSHLLLHKKENGIWSTEILKNFKNKTFLKCEAPNYSGRFTCSWLVQRNMDLKFNIKSSSSSPDSRAVTCGMASLSAEKVTLDQRDYEKYSVSCQEDVTCPTAEETLPIELALEARQQNKYENYSTSFFIRDIIKPDPPKNLQMKPLKNSQVEVSWEYPDSWSTPHSYFSLKFFVRIQRKKEKMKETEEGCNQKGAFLVEKTSTEVQCKGGNVCVQAQDRYYNSSCSKWACVPCRVRS
[1]; cultures of adherent and nonadherent splenocytes both from rmIL-12 treated mice, vs. PBS-treated
  mitogenic responses: suppressed mitogenic responses
[1]; nonadherent cells from control mice mixed with adherent cells from rmIL-12 treated mice
  proliferative responses (Con A, IL-12 or alloantigen): severely impaired
[1]; nonadherent cells from rmIL-12 treated mice cocultured with adherent cells from PBS-treated mice
  mitogenic responses: normal mitogenic responses
[1]; splenocytes from rmIL-12-treated HKB-vaccinated C57BL/6 mice
  in vitro mitogenic and alloproliferative responses: suppressed
[1]; splenocytes from rmIL-12-treated TNFR−/− mice
  proliferative responses to Con A, IL-12 and allogeneic stimulation: suppressed
[1]; splenocytes from rmIL-12-treated iNOS−/− mice
  proliferative responses after stimulation with mitogens or alloantigens: proliferative responses like those of splenocytes from control mice
[1]; splenocytes from rmIL-12 treated IFNγ−/− mice
  proliferative responses to Con A, IL-12 and allogeneic stimulation: normal proliferative responses
[2]
  splenomegaly: induced splenomegaly
[3]
  Effect on tumor protection: impairs tumor protection
[4]; four weeks after vaccination
  Effect on SCK.GM vaccine protection: had no deleterious effect
[4]; two weeks after vaccination
  Effect on SCK.GM vaccine protection: abrogated protection
